Test results taken from patent US20160032014A1 (Amgen, published 2016).
Like-named read-outs stand apart in the source and are kept apart here.

B1: SS-15497 (antibody, V domains shown)
VH: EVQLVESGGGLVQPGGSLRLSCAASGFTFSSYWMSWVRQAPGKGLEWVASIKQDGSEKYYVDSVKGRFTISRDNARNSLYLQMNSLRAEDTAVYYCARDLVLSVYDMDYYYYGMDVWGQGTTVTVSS
VL: DIVMTQSPLSLPVTPGEPASISCRSSQSLLHSGNGYNYLDWYLQKPGQSPQLLIYLGLNRASGVPDRFSGSGSGTDFTLKISRVEAEDVGVYYCMQAIHTPLTFGGGTKVEIKR
notes: HC VH6 (M103S, I107M), LC G33 insertion, S57L, L97I, Q98H
B2: SS-14835 (antibody, V domains shown)
VH: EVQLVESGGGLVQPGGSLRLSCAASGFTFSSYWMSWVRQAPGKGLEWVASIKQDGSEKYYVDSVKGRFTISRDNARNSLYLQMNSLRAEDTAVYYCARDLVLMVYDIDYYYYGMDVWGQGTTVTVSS
VL: DIVMTQSPLSLPVTPGEPASISCRSSQSLLHSGNGYNYLDWYLQKPGQSPQLLIYLGLNRASGVPDRFSGSGSGTDFTLKISRVEAEDVGVYYCMQAIHTPLTFGGGTKVEIKR
notes: HC WT, LC G33 insertion, S57L/L97I, Q98H
B3: SS-15196 (antibody, V domains shown)
VH: not shown
VL: DIVMTQSPLSLPVTPGEPASISCRSSQSLLHSGNGYNYLDWYLQKPGQSPQLLIYLGLNRASGVPDRFSGSGSGTDFTLKISRVEAEDVGVYYCMQAIHTPLTFGGGTKVEIKR
notes: HC I107M, LC G33 insertion, S57L, L97I, Q98H
B4: SS-15132 (antibody, V domains shown)
VH: EVQLVESGGGLVKPGGSLRLSCAASGFTFSSYSMNWVRQAPGKGLEWVSSISSSSSYHSYADSVKGRFTISRDNAKNSLYLQMNSLRAEDTAVYFCARDYDFHSAHYDAFDVWGQGTMVTVSS
VL: ESVLTQPPSVSGAPGQRVTISCTGSSSNIGAGYDVHWYQQLPGTAPKLLISGNSNRPSGVPDRFSGSKSGTSASLAITGLQAEDEADYYCQSYDSSLSGSVFGGGTKLTVLG
notes: 31H4 His variant: HC 68(58), 132(106), parental(113H)
B5: SS-15126 (antibody, V domains shown)
VH: EVQLVESGGGLVKPGGSLRLSCAASGFTFSSYSMNWVRQAPGKGLEWVSSISSSSHYISYADHVKGRFTISRDNAKNSLYLQMNSLRAEDTAVYFCARDYDFHSAYYDAFDVWGQGTMVTVSS
VL: ESVLTQPPSVSGAPGQRVTISCTGSSSNIGAGYDVHWYQQLPGTAPKLLISGNSNRPSGVPDRFSGSKSGTSASLAITGLQAEDEADYYCQSYDSSLSGSVFGGGTKLTVLG
notes: 31H4 His variant: HC 66(56), 73(63), parental(113H)
B6: SS-15114 (antibody, V domains shown)
VH: EVQLVESGGGLVKPGGSLRLSCAASGFTFSSHSMNWVRQAPGKGLEWVSSISSSSSYISYADSVKGRFTISRDNAKNSLYLQMNSLRAEDTAVYFCARDYDFHSAHYDAFDVWGQGTMVTVSS
VL: ESVLTQPPSVSGAPGQRVTISCTGSSSNIGAGYDVHWYQQLPGTAPKLLISGNSNRPSGVPDRFSGSKSGTSASLAITGLQAEDEADYYCQSYDSSLSGSVFGGGTKLTVLG
notes: 31H4 His variant: HC 39(32), 132(106), parental(113H)
B7: SS-15141 (antibody, V domains shown)
VH: EVQLVESGGGLVKPGGSLRLSCAASGFTFSSYSMNWVRQAPGKGLEWVSSISSSSSYISYADHVKGRFTISRDNAKNSLYLQMNSLRAEDTAVYFCARDYDFHSAHYDAFDVWGQGTMVTVSS
VL: ESVLTQPPSVSGAPGQRVTISCTGSSSNIGAGYDVHWYQQLPGTAPKLLISGNSNRPSGVPDRFSGSKSGTSASLAITGLQAEDEADYYCQSYDSSLSGSVFGGGTKLTVLG
notes: 31H4 His variant: HC 73(63), 132(106), parental(113H)
B8: SS-15121 (antibody, V domains shown)
VH: EVQLVESGGGLVKPGGSLRLSCAASGFTFSSYSMNWVRQAPGKGLEWVSSISSHSSYISYADSVKGRFTISRDNAKNSLYLQMNSLRAEDTAVYFCARDYDFHSAHYDAFDVWGQGTMVTVSS
VL: ESVLTQPPSVSGAPGQRVTISCTGSSSNIGAGYDVHWYQQLPGTAPKLLISGNSNRPSGVPDRFSGSKSGTSASLAITGLQAEDEADYYCQSYDSSLSGSVFGGGTKLTVLG
notes: 31H4 His variant: HC 61(54), 132(106), parental(113H); parental LC
B9: SS-15124 (antibody, V domains shown)
VH: EVQLVESGGGLVKPGGSLRLSCAASGFTFSSYSMNWVRQAPGKGLEWVSSISSSSHYISHADSVKGRFTISRDNAKNSLYLQMNSLRAEDTAVYFCARDYDFHSAYYDAFDVWGQGTMVTVSS
VL: ESVLTQPPSVSGAPGQRVTISCTGSSSNIGAGYDVHWYQQLPGTAPKLLISGNSNRPSGVPDRFSGSKSGTSASLAITGLQAEDEADYYCQSYDSSLSGSVFGGGTKLTVLG
notes: 31H4 His variant: HC 66(56), 70(60), parental(113H)
B10: SS-15065 (antibody, V domains shown)
VH: EVQLVESGGGLVKPGGSLRLSCAASGFTFSSYSMNWVRQAPGKGLEWVSSISSSSSYISYADSVKGRFTISRDNAKNSLYLQMNSLRAEDTAVYFCARDYDFHSAHYDAFDVWGQGTMVTVSS
VL: ESVLTQPPSVSGAPGQRVTISCTGSSSNIGAGHDVHWYQQLPGTAPKLLISGNSNRPSGVPDRFSGSKSGTSASLAITGLQAEDEADYYCQSYDSSLSGSVFGGGTKLTVLG
notes: 31H4 His variant: LC 39(32), HC 132(106), parental(113H)
B11: SS-15136 (antibody, V domains shown)
VH: EVQLVESGGGLVKPGGSLRLSCAASGFTFSSYSMNWVRQAPGKGLEWVSSISSSSSYISHADSVKGRFTISRDNAKNSLYLQMNSLRAEDTAVYFCARDYDFHSAHYDAFDVWGQGTMVTVSS
VL: ESVLTQPPSVSGAPGQRVTISCTGSSSNIGAGYDVHWYQQLPGTAPKLLISGNSNRPSGVPDRFSGSKSGTSASLAITGLQAEDEADYYCQSYDSSLSGSVFGGGTKLTVLG
notes: 31H4 His variant: HC 70(60), 132(106), parental(113H)
B12: SS-15139 (antibody, V domains shown)
VH: EVQLVESGGGLVKPGGSLRLSCAASGFTFSSYSMNWVRQAPGKGLEWVSSISSSSSYISYAHSVKGRFTISRDNAKNSLYLQMNSLRAEDTAVYFCARDYDFHSAHYDAFDVWGQGTMVTVSS
VL: ESVLTQPPSVSGAPGQRVTISCTGSSSNIGAGYDVHWYQQLPGTAPKLLISGNSNRPSGVPDRFSGSKSGTSASLAITGLQAEDEADYYCQSYDSSLSGSVFGGGTKLTVLG
notes: 31H4 His variant: HC 72(62), 132(106), parental(113H)
B13: SS-15087 (antibody, V domains shown)
VH: EVQLVESGGGLVKPGGSLRLSCAASGFTFSSYSMNWVRQAPGKGLEWVSSISSSSSYISYADSVKGRFTISRDNAKNSLYLQMNSLRAEDTAVYFCARDYDFHSAHYDAFDVWGQGTMVTVSS
VL: ESVLTQPPSVSGAPGQRVTISCTGSSSNIGAGYDVHWYQQLPGTAPKLLISGNSNRPSGVPDRFSGSKSGTSASLAITGLQAEDEADYYCQSYDSSLHGSVFGGGTKLTVLG

Key:
[1] = biological target: T1, human PCSK9 (self-cleaved, mature, secreted PCSK9 comprising amino acids 31 to 692 of SEQ ID NO: 2) (human, UniProt Q8NBP7 31-692, biotinylated in the ELISAs); assay: SPR pH 7.4
T1 construct: Limits 31-692 are stated for the immunogen; the assays only say human PCSK9; also called huPCSK9; rhu PCSK9

[2] = biological target: T1, human PCSK9 (self-cleaved, mature, …); assay: solution equilibrium, BIAcore, pH 5.5
[3] = biological target: T1, human PCSK9 (self-cleaved, mature, …); assay: solution equilibrium, BIAcore, pH 7.4
[4] = biological target: T1, human PCSK9 (self-cleaved, mature, …); assay: solution equilibrium, BIAcore
[5] = biological target: T1, human PCSK9 (self-cleaved, mature, …); assay: SPR pH 7.4; remark: listed apart in the source
[6] = biological target: T1, human PCSK9 (self-cleaved, mature, …); assay: SPR pH 5.5
[7] = biological target: T1, human PCSK9 (self-cleaved, mature, …); assay: SPR pH 7.4; remark: listed apart in the source

Binder	Kd [1] [nM]	koff [1] [s⁻¹]	kon [1] [M⁻¹ s⁻¹]	Kd [2] [nM]	Kd [3] [nM]	KD ratio pH 5.5/pH 7.4 [4]	Kd [5] [nM]	koff [5] [s⁻¹]	kon [5] [M⁻¹ s⁻¹]	estimated complex half life pH 5.5 [6] [s]	Kd [7] [nM]	koff [7] [s⁻¹]	kon [7] [M⁻¹ s⁻¹]
B1	0.249	9.47e-05	381000	0.68	0.084	8.1	0.249	9.47e-05	381000				
B2	0.534	0.000163	306000	3.1	0.35	8.9	0.534	0.000163	306000				
B3	0.134	5.06e-05	377000	0.57	0.056	10.2	0.134	5.06e-05	377000				
B4										20	0.273	0.000338	1.24e+06
B5										100	0.257	0.000385	1.5e+06
B6										100	0.271	0.00015	555000
B7										100	0.185	0.000255	1.38e+06
B8										20	0.383	0.000563	1.47e+06
B9										100	0.327	0.000525	1.6e+06
B10										100	0.274	0.000337	1.23e+06
B11										100	0.241	0.000298	1.23e+06
B12										100	0.19	0.000248	1.31e+06
B13										100	0.229	0.000288	1.26e+06
